Reference: patent publication US20250277045A1

Biological target: human BCMA recombinant antigen (human) (UniProt Q02223)
Assay: competition ELISA, coated human BCMA, antibody varied, then biotinylated human APRIL at 240 ng/mL, SA-HRP

human BCMA recombinant antigen (human), sequence (Q02223 1-53): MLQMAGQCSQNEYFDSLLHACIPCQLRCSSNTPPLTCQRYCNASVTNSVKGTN

- IC50 (read off the curve): 3 nM
Substance: REGN5458 (bispecific antibody)
